# Reference: patent US11780927B2, “Anti-CD40 antibodies for use in prevention of graft rejection” (NOVARTIS AG, priority 2018, dated 2023)
# Columns and labels:
# human PBMCs = assay: rCD154 and IL-4-mediated proliferation (3H-TdR), human PBMCs; format: cell-based
# [1] = target: T1, CD40 on peripheral B cells (Homo sapiens, UniProt P25942); assay: Single-ascending dose study in healthy subjects and rheumatoid arthritis patients; format: in vivo; settings: for Safety and tolerability: single doses up to 3 mg/kg in healthy volunteers, 10 mg/kg in RA patients
# T1 construct: CD40 occupancy on peripheral B cells measuring free CD40 and total CD40; endogenous in cells; host or cells: peripheral / whole blood B cells of healthy subjects and rheumatoid arthritis patients dosed with CFZ533
# Protocol: The safety, tolerability, PK and PD activity of mAb1 are being assessed in an ongoing, randomized, double-blind, placebo-controlled, single-ascending dose study of mAb1 in healthy subjects and patients with rheumatoid arthritis (RA). A total of 48 subjects have been enrolled: 36 healthy subjects who received single doses of mAb1 up to 3 mg/kg IV or S.C., and 12 patients with RA, 6 of whom received single doses of mAb1 at 10 mg/kg IV. […] An investigation of the 30 mg/kg IV dose is ongoing in RA patients. As this study is still ongoing, all clinical data are preliminary in nature and based on interim analyses conducted up to a dose of 10 mg/kg in RA patients. […]
# T1 sequence (P25942 21-277): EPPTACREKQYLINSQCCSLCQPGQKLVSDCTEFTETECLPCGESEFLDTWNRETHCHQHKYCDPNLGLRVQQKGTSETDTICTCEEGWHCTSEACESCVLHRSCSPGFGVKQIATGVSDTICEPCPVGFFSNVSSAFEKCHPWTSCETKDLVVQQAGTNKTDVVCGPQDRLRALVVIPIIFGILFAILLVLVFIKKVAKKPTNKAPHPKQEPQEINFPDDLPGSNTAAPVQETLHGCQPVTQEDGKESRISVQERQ
substance,measurement,setting,value
"CFZ533: human anti-CD40 IgG1 monoclonal antibody with Fc-silencing N297A mutation; heavy chain SEQ ID NO: 9, light chain SEQ ID NO: 10",Effect of delayed addition on rCD154-induced cellular activation,human PBMCs; added up to 6 hours after start of cultures containing rCD154,complete inhibition of cellular activation with minimal loss of potency
same,Inhibition of rCD154-induced proliferation (IC50 PBMCs),human PBMCs; human PBMCs,0.02 mg/L
same,IC50,"human PBMCs; human PBMCs, read-out: IC50, rCD154-induced proliferation",0.12 nM
same,duration of full CD40 occupancy,[1]; 1 mg/kg IV,1 week
same,duration of target engagement (full CD40 occupancy on B cells),"[1]; 3 mg/kg IV, healthy subjects",about 4 weeks
same,duration of target engagement (full CD40 occupancy on B cells),"[1]; 3 mg/kg SC, healthy subjects",about 4 weeks
same,time of peak plasma concentration,"[1]; 3 mg/kg SC, healthy subjects",3 days
same,duration of full CD40 occupancy,"[1]; 10 mg/kg IV, rheumatoid arthritis patients",8 weeks
same,duration of target engagement,"[1]; 30 mg/kg IV, rheumatoid arthritis patients",16 weeks
same,decrease in total CD40 on peripheral B cells,[1]; healthy subjects,about 50%
same,ADA incidence,"[1]; human, in vivo",2%
same,plasma concentration associated with full (≥90%) CD40 occupancy on whole blood B cells,"[1]; human, in vivo",0.3 to 0.4 µg/mL
same,duration of suppression of anti-KLH responses (full receptor occupancy),[1]; single dose of 3 mg/kg (IV and SC),3-4 weeks
same,Safety and tolerability,[1],did not reveal major safety concern
same,Safety and tolerability,[1]; listed as mAb1,safe and well tolerated
